Test results as given in the RNAGym collection of RNA variant scans (doi:10.7554/elife.90254).

B1: LINE1-full (parent)
chain: UACGUAGGUGGUUUUCCCCUGAUAGUGCUAAGGGGGCCUGGAAGUUUGGACUGGGCAGAGCUCAACACAGCGUGGCAAAGUGGCUGUGGCUAGACUGCCUCUCUGGAUUCCUCGUCACUCAGCAGGGCAUCUCUGAGAGAAAUGCC

Variants of: B1
Assay: self-cleavage, relative activity (ratio to wild type); higher = more cleavage; in vitro, sequencing; the parent is a self-cleaving ribozyme

Variant	self-cleavage
U108C C111A	1.76
U9C U115C	1.29
A59G U100C	0.16
C19G C56U	0.22
A77G G137A	2.66
A30U A65C	0.1
G72A A141U	1.42
C3A G72A	0.38
U12C G86A	0.14
U115A U132G	1.84
U20C A92U	0.72
A92G A94G	0.12
G7C U52A	1.32
U20A G114A	1.4
G74U A141G	1.68
A67U A140U	0.08
A24G A57U	0.27
A65G A92U	0.1
C113U G126A	1.62
A92U A138G	0.75
A129C U143C	1.74
U29A U119G	1.31
G7C G40A	1.27
U134A A140G	0.53

Variant	self-cleavage
A124G A136U	1.3
G83U	0.86
U85A U109G	0.05
U9C U143C	1.31
G40U U132C	2.4
C19G A43G	0.31
A94C U130C	0.09
U102C A117C	2.63
C98G U112C	0.12
A2G U9A	0.56
U26C A69C	0.08
C101A A124G	0.98
A42U A43G	1.51
U102A C113A	0.97
U109C U143A	1.18
A50G U87G	0.11
G36A C118G	1.04
U39C A57G	0.44
U14G A77G	0.57
G10U U104C	2.42
U91C U109A	0.48
U29C G114C	1.49
U29C G114A	1.38
U13A C128U	1.61

Variant	self-cleavage
U20C G48U	1.27
U47A A50U	0.87
G53A A64G	0.12
C63A A64G	0.02
A24G U46G	1.28
U13C A94G	0.33
U108C C145A	1.47
C103A A117G	1.49
C90G U132C	0.05
C3U U45C	0.8
G27C U109C	0.92
A57U A94C	0.1
U39A U73A	1.76
A22G C128U	1.26
U26C G89A	0.03
U13C C71U	0.58
A67G G122A	0.54
A6G C111U	1
U9A G93A	0.06
A50U U62C	0.04
U39A A64G	0.21
C113U U130C	1.77
U112A A138U	2.19
A2G	0.85

Variant	self-cleavage
A67C U87A	0.05
U52C A94G	0.24
U23A U46G	0.35
U102A A107G	1.06
U87G A124U	0.17
G36A U119A	1.36
A6G A77G	1.18
G4A G34A	0.66
G27U	0.97
G48A C131G	0.17
C19U A31U	1.35
G41A U134C	1.15
C16A A117G	1.01
U13A U14C	0.46
A69G C133A	0.47
C51U U85A	0.09
A77U G114A	1.65
U46C U104C	1.96
U45G A129U	0.67
U20G U46C	2.3
A65G U73G	0.08
U62A A67G	0.07
U12C U108C	1.66
A78C U119C	2.95

Variant	self-cleavage
U14A A24G	0.96
C95A U108C	0
A2G C71U	0.7
U52C A67U	0.16
U9G A67G	0.37
G88A G135A	0.08
G4A G10A	1.21
C110U A136C	2.76
G35A A78G	0.9
C17A A59U	0.69
U12G U130A	1.65
U47C A142G	1.5
C116G U134C	0.99
C110G A129G	1.36
U45A U100C	1.05
U52A U91A	0.63
U81C G127U	1.22
A2G U143A	0.99
U1C U23C	0.98
A59U U115C	1.34
G125A	1.19
U29A A69G	0.42
G40U A59G	0.05
U102C U130A	2.21

Variant	self-cleavage
A50G G126U	0.76
G40A A138G	1.49
U14C C131A	1.15
U14C G58U	0.03
A67G A129G	0.45
U15C U52C	1.14
U132A A141G	1.58
A31G C123U	1.02
U1C U26G	0.72
U45C G80A	2.16
G80U A141U	1.68
C131A	1.48
C99A U109C	0.41
A69U A121U	0.05
A69U A121G	0.05
G10A A138G	1.2
U26G C110U	1.75
U29A U134C	0.87
U14C G36A	1.55
U62C U112A	0.05
U108C A121U	2.15
U20G U85G	0.1
C51G C71U	1.5
U13C A121C	1.34

Variant	self-cleavage
A22U A64G	0.3
G34A A59G	0.07
G35A G72A	1.18
G55C U115C	0.26
U15C A57G	1.06
G40U U100C	0.46
U15A G72A	0.92
G36C U39G	0.76
A6U U46A	1.07
A30G U85G	0.17
A65G A140C	0.13
A30U A77G	1.25
G40U	1
U112C G125A	1.6
A69G A140G	0.36
U9G A141G	1.51
A6U A30U	0.58
A42U C103A	0.91
G7A G54A	0.4
U46A G114A	1.08
A64U G122A	0.54
A6G G60U	0.19
A43U U130C	2.34
